B1: ADP-ribosylation factor 1 (Saccharomyces cerevisiae), P11076 (parent)
chain: MGLFASKLFSNLFGNKEMRILMVGLDGAGKTTVLYKLKLGEVITTIPTIGFNVETVQYKNISFTVWDVGGQDRIRSLWRHYYRNTEGVIFVVDSNDRSRIGEAREVMQRMLNEDELRNAAWLVFANKQDLPEAMSAAEITEKLGLHSIRNRPWFIQATCATSGEGLYEGLEWLSNSLKNST
B2: ADP-ribosylation factor 1 (Saccharomyces cerevisiae), P11076 (parent)
chain: B1 chain
partner: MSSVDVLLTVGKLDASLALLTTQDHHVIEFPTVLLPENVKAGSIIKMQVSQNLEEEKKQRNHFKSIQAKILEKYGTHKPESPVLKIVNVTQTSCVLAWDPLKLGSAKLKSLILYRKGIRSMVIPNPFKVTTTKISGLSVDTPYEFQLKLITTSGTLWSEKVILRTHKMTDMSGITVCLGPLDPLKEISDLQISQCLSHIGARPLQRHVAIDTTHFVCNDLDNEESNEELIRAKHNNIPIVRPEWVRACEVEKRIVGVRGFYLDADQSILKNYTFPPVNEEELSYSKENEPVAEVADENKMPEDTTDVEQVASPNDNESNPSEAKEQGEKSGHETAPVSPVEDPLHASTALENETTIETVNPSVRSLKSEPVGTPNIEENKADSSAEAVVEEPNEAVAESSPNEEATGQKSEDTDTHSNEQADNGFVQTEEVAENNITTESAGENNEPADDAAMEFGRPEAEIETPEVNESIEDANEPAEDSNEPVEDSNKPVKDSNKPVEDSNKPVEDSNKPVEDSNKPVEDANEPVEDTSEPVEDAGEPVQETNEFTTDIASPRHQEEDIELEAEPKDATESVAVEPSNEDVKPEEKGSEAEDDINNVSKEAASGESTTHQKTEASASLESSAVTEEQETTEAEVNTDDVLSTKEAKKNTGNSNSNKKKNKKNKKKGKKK

Variants of: B1
Conditions: with glo3_yeast GLO3, P38682
Chain of glo3_yeast GLO3, P38682 (P38682 whole entry): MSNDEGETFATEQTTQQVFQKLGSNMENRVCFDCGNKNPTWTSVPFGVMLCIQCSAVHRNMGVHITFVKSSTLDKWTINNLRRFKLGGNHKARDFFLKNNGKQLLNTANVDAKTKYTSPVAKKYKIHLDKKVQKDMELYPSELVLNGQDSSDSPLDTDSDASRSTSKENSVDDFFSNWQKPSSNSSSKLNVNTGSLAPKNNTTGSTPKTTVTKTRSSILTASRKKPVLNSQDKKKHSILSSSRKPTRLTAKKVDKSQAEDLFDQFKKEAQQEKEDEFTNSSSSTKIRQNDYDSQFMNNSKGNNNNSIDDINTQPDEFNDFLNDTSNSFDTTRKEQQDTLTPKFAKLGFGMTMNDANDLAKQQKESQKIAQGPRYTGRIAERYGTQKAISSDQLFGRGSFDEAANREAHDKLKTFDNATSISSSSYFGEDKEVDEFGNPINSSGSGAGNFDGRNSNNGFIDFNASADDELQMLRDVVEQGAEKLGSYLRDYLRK

effect of a mutation on the interaction	Variant
increasing interaction	MGLFASKLFSNLFGNKEMRILMVGLDGAGKTTVLYKLKLGEVITTIPTIGFNVETVQYKNISFTVWDVGGLDRIRSLWRHYYRNTEGVIFVVDSNDRSRIGEAREVMQRMLNEDELRNAAWLVFANKQDLPEAMSAAEITEKLGLHSIRNRPWFIQATCATSGEGLYEGLEWLSNSLKNST [Q71L]

Variants of: B2
Conditions: with chs5_yeast CHS5, Q12114

effect of a mutation on the interaction	Variant
increasing interaction	MGLFASKLFSNLFGNKEMRILMVGLDGAGKTTVLYKLKLGEVITTIPTIGFNVETVQYKNISFTVWDVGGLDRIRSLWRHYYRNTEGVIFVVDSNDRSRIGEAREVMQRMLNEDELRNAAWLVFANKQDLPEAMSAAEITEKLGLHSIRNRPWFIQATCATSGEGLYEGLEWLSNSLKNST [Q71L]
